Assay results from the supplement of paper PMC9112550, “Optimization of the antimicrobial peptide Bac7 by deep mutational scanning” (BMC Biology, 2022).

System: Escherichia coli TOP10
Test: shrunken log2 fold change of peptide-encoding DNA abundance (4.5 h post-induction vs induction); higher = less antimicrobial activity (less host growth inhibition)
Details: time post-induction: 4.5 h; library: site-saturation at positions 5, 18, 19, 20
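Also: peptides expressed intracellularly from a pBAD plasmid library in pooled LB shake-flask culture, induced with 0.3% L-arabinose, DNA abundance read by NGS, three biological replicates, DESeq2 with apeglm shrinkage.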

| Sequence | shrunken log2 fold change |
| --- | --- |
| RRIRHRPPRLPRPRPRPQPLPRP | -0.0863 |
| RRIRIRPPRLPRPRPRPEARPRP | 0.312 |
| RRIRQRPPRLPRPRPRPECNPRP | 0.062 |
| RRIRFRPPRLPRPRPRPISYPRP | -0.778 |
| RRIRPRPPRLPRPRPRPFVWPRP | -0.0428 |
| RRIRWRPPRLPRPRPRPEYYPRP | -0.13 |
| RRIRKRPPRLPRPRPRPAQTPRP | 0.246 |
| RRIRMRPPRLPRPRPRPDMSPRP | -0.00277 |
| RRIRLRPPRLPRPRPRPYESPRP | -0.957 |
| RRIRCRPPRLPRPRPRPTDWPRP | 0.169 |
| RRIRPRPPRLPRPRPRPHSNPRP | -0.316 |
| RRIRLRPPRLPRPRPRPIMEPRP | -0.193 |
| RRIRCRPPRLPRPRPRPFNHPRP | -0.427 |
| RRIRARPPRLPRPRPRPIAVPRP | 0.166 |
| RRIRERPPRLPRPRPRPSAEPRP | 0.0172 |
| RRIRERPPRLPRPRPRPIIQPRP | -0.386 |
| RRIRFRPPRLPRPRPRPSMAPRP | 0.0143 |
| RRIRKRPPRLPRPRPRPPWQPRP | 0.236 |
| RRIRSRPPRLPRPRPRPTQRPRP | 0.547 |
| RRIRVRPPRLPRPRPRPWKDPRP | -0.00963 |
| RRIRVRPPRLPRPRPRPAHDPRP | 0.113 |
| RRIRTRPPRLPRPRPRPNADPRP | -0.00181 |
| RRIRSRPPRLPRPRPRPSNTPRP | -0.748 |
| RRIRDRPPRLPRPRPRPAVKPRP | 0.368 |
| RRIRLRPPRLPRPRPRPWRGPRP | 0.277 |

| Sequence | shrunken log2 fold change |
| --- | --- |
| RRIRPRPPRLPRPRPRPDYIPRP | -1.2 |
| RRIRVRPPRLPRPRPRPYGRPRP | -0.0856 |
| RRIRLRPPRLPRPRPRPCFNPRP | -0.774 |
| RRIRMRPPRLPRPRPRPSTRPRP | 0.406 |
| RRIRFRPPRLPRPRPRPRPKPRP | 0.98 |
| RRIRGRPPRLPRPRPRPDDKPRP | 0.22 |
| RRIRSRPPRLPRPRPRPRKNPRP | -0.0439 |
| RRIRNRPPRLPRPRPRPVNEPRP | -0.0227 |
| RRIRPRPPRLPRPRPRPPPIPRP | 0.374 |
| RRIRSRPPRLPRPRPRPQAGPRP | 0.165 |
| RRIRWRPPRLPRPRPRPQMTPRP | -0.0595 |
| RRIRCRPPRLPRPRPRPTCIPRP | -0.307 |
| RRIRLRPPRLPRPRPRPNLEPRP | 0.0534 |
| RRIRNRPPRLPRPRPRPCSMPRP | -0.132 |
| RRIRTRPPRLPRPRPRPSMTPRP | -0.401 |
| RRIRVRPPRLPRPRPRPGPWPRP | 0.273 |
| RRIRIRPPRLPRPRPRPFTFPRP | -0.148 |
| RRIRDRPPRLPRPRPRPMHAPRP | 0.121 |
| RRIRFRPPRLPRPRPRPCDCPRP | -0.0184 |
| RRIRIRPPRLPRPRPRPPQHPRP | -0.107 |
| RRIRWRPPRLPRPRPRPMQDPRP | -0.13 |
| RRIRHRPPRLPRPRPRPPPTPRP | 0.766 |
| RRIRDRPPRLPRPRPRPPKEPRP | -0.2 |
| RRIRTRPPRLPRPRPRPIGTPRP | 0.0179 |
| RRIRQRPPRLPRPRPRPCWWPRP | 0.0676 |

| Sequence | shrunken log2 fold change |
| --- | --- |
| RRIRERPPRLPRPRPRPRIKPRP | -0.598 |
| RRIRPRPPRLPRPRPRPNTIPRP | -0.553 |
| RRIRVRPPRLPRPRPRPIWYPRP | -0.146 |
| RRIRFRPPRLPRPRPRPCAFPRP | -0.393 |
| RRIRERPPRLPRPRPRPHPHPRP | -0.167 |
| RRIRYRPPRLPRPRPRPEAEPRP | 0.137 |
| RRIRHRPPRLPRPRPRPQERPRP | -0.0325 |
| RRIRLRPPRLPRPRPRPWNIPRP | -0.176 |
| RRIRMRPPRLPRPRPRPPWCPRP | 0.831 |
| RRIRERPPRLPRPRPRPQYQPRP | -1.12 |
| RRIRTRPPRLPRPRPRPDRRPRP | 0.0647 |
| RRIRRRPPRLPRPRPRPHIKPRP | -0.43 |
| RRIRRRPPRLPRPRPRPWYFPRP | -0.204 |
| RRIRTRPPRLPRPRPRPIHMPRP | -0.171 |
| RRIRTRPPRLPRPRPRPPATPRP | 0.213 |
| RRIRERPPRLPRPRPRPLTVPRP | -0.0383 |
| RRIRIRPPRLPRPRPRPINFPRP | -0.346 |
| RRIRMRPPRLPRPRPRPRVIPRP | 0.477 |
| RRIRWRPPRLPRPRPRPWLCPRP | -0.0206 |
| RRIRQRPPRLPRPRPRPIQIPRP | -0.105 |
| RRIRVRPPRLPRPRPRPETCPRP | 0.437 |
| RRIRPRPPRLPRPRPRPSWVPRP | 0.0466 |
| RRIRQRPPRLPRPRPRPWDVPRP | -0.0187 |
| RRIRCRPPRLPRPRPRPAMAPRP | 0.199 |
| RRIRIRPPRLPRPRPRPIHDPRP | 2.93 |

| Sequence | shrunken log2 fold change |
| --- | --- |
| RRIRIRPPRLPRPRPRPELAPRP | 0.254 |
| RRIRDRPPRLPRPRPRPGFLPRP | 0.368 |
| RRIRMRPPRLPRPRPRPELNPRP | 0.0722 |
| RRIRHRPPRLPRPRPRPVYDPRP | -0.202 |
| RRIRVRPPRLPRPRPRPMCDPRP | -0.0462 |
| RRIRLRPPRLPRPRPRPPFGPRP | 0.0044 |
| RRIRTRPPRLPRPRPRPVEMPRP | -0.162 |
| RRIRPRPPRLPRPRPRPAPHPRP | 0.402 |
| RRIRARPPRLPRPRPRPMTWPRP | 0.307 |
| RRIRQRPPRLPRPRPRPNLQPRP | 0.0864 |
| RRIRWRPPRLPRPRPRPNDRPRP | 0.174 |
| RRIRERPPRLPRPRPRPGIIPRP | -0.0249 |
| RRIRRRPPRLPRPRPRPKAFPRP | -0.0104 |
| RRIRKRPPRLPRPRPRPDDMPRP | 2.74 |
| RRIRFRPPRLPRPRPRPVYLPRP | -0.721 |
| RRIRYRPPRLPRPRPRPHQIPRP | -0.201 |
| RRIRRRPPRLPRPRPRPFYVPRP | -0.0483 |
| RRIRSRPPRLPRPRPRPVKEPRP | 0.0656 |
| RRIRLRPPRLPRPRPRPLPCPRP | 0.142 |
| RRIRQRPPRLPRPRPRPWEFPRP | -0.123 |
| RRIRDRPPRLPRPRPRPEVKPRP | -0.0257 |
| RRIRQRPPRLPRPRPRPIHWPRP | -0.198 |
| RRIRARPPRLPRPRPRPDACPRP | 0.955 |
| RRIRNRPPRLPRPRPRPHCRPRP | 0.00914 |
| RRIRCRPPRLPRPRPRPSARPRP | 0.16 |

| Sequence | shrunken log2 fold change |
| --- | --- |
| RRIRRRPPRLPRPRPRPMHTPRP | 0.322 |
| RRIRYRPPRLPRPRPRPSMQPRP | -0.288 |
| RRIRSRPPRLPRPRPRPVGCPRP | 0.281 |
| RRIRSRPPRLPRPRPRPNPCPRP | -0.574 |
| RRIRTRPPRLPRPRPRPYNTPRP | -0.737 |
| RRIRIRPPRLPRPRPRPKEIPRP | -0.113 |
| RRIRIRPPRLPRPRPRPPAPPRP | 0.298 |
| RRIRFRPPRLPRPRPRPWIRPRP | -0.205 |
| RRIRIRPPRLPRPRPRPQNHPRP | -0.871 |
| RRIRMRPPRLPRPRPRPYIHPRP | -0.262 |
| RRIRHRPPRLPRPRPRPCVHPRP | -0.00151 |
| RRIRERPPRLPRPRPRPKWVPRP | -0.0367 |
| RRIRFRPPRLPRPRPRPWQLPRP | -0.234 |
| RRIRERPPRLPRPRPRPFFQPRP | -0.173 |
| RRIRDRPPRLPRPRPRPVIVPRP | 0.0947 |
| RRIRVRPPRLPRPRPRPLSEPRP | 0.0246 |
| RRIRVRPPRLPRPRPRPTVRPRP | 0.126 |
| RRIRYRPPRLPRPRPRPVFMPRP | -0.484 |
| RRIRERPPRLPRPRPRPAKYPRP | -0.274 |
| RRIRWRPPRLPRPRPRPQYFPRP | -0.181 |
| RRIRDRPPRLPRPRPRPHFHPRP | -0.0477 |
| RRIRHRPPRLPRPRPRPTLKPRP | 1.82 |
| RRIRIRPPRLPRPRPRPDGVPRP | -0.0166 |
| RRIRYRPPRLPRPRPRPNEFPRP | -0.498 |
| RRIRSRPPRLPRPRPRPWLYPRP | -0.652 |

| Sequence | shrunken log2 fold change |
| --- | --- |
| RRIRDRPPRLPRPRPRPMQMPRP | 0.467 |
| RRIRFRPPRLPRPRPRPDEWPRP | 0.0983 |
| RRIRKRPPRLPRPRPRPSTDPRP | -0.135 |
| RRIRMRPPRLPRPRPRPYHKPRP | -0.0503 |
| RRIRERPPRLPRPRPRPFKNPRP | -0.174 |
| RRIRGRPPRLPRPRPRPRGIPRP | 1.23 |
| RRIRPRPPRLPRPRPRPQQNPRP | 0.076 |
| RRIRARPPRLPRPRPRPVRPPRP | 0.602 |
| RRIRWRPPRLPRPRPRPCYYPRP | -0.0954 |
| RRIRCRPPRLPRPRPRPLEIPRP | -0.164 |
| RRIRRRPPRLPRPRPRPHLNPRP | -0.194 |
| RRIRPRPPRLPRPRPRPFWWPRP | 0.55 |
| RRIRHRPPRLPRPRPRPLRCPRP | 0.0647 |
| RRIRSRPPRLPRPRPRPWYQPRP | -0.314 |
| RRIRTRPPRLPRPRPRPGYFPRP | -0.0719 |
| RRIRHRPPRLPRPRPRPQYTPRP | -1.27 |
| RRIRTRPPRLPRPRPRPNAEPRP | 0.25 |
| RRIRTRPPRLPRPRPRPIISPRP | -0.0891 |
| RRIRWRPPRLPRPRPRPMNTPRP | -0.28 |
| RRIRTRPPRLPRPRPRPEGFPRP | -0.041 |
| RRIRKRPPRLPRPRPRPHQDPRP | 0.0154 |
| RRIRLRPPRLPRPRPRPMAAPRP | 0.627 |
| RRIRLRPPRLPRPRPRPESYPRP | -0.266 |
| RRIRHRPPRLPRPRPRPFGVPRP | -0.326 |
| RRIRNRPPRLPRPRPRPMAFPRP | -0.192 |
